These results are taken from article PMC9354405.

In the experiment the target is HBV S/preS1^16-42 chimeric antigen (Hepatitis B virus, genotype D) (UniProt P03138). Briefly: SDS-PAGE under non-reducing conditions with western blot; lysates of transfected HEK293T cells, -DTT, detected with anti-preS1 antibodies; dimers of ~50 kDa held by intermolecular disulfide bonds.

Take “HBV S/preS1^16-42 chimeric antigen (from UniProt P03138 16-42)”: the stoichiometry N turned out to be 2.
